Consider 5 molecules from publication PMC5451212, “RISC-interacting clearing 3’- 5’ exoribonucleases (RICEs) degrade uridylated cleavage fragments to maintain functional RISC in Arabidopsis thaliana” (eLife, 2017).

As usually defined, the stoichiometry N is a count of units in the complex or per binding partner.

T1: MBP-AGO10 NC (127-336) (A. thaliana, UniProt Q9XGW1 127-336)
T1 construct: source: E. coli BL21 (DE3), purified (amylose resin); not shown: MBP, N-terminal, kept
T1 sequence (looked up): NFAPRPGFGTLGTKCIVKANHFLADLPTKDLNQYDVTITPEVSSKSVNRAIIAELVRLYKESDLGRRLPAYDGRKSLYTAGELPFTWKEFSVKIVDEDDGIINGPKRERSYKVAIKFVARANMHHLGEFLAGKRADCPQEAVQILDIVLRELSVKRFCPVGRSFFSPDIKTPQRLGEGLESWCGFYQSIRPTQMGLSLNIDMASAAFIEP

T2: MBP-AGO10 PIWI (625-988) (A. thaliana, UniProt Q9XGW1 625-988)
T2 construct: AGO10, A. thaliana, residues 625-988 (PIWI); source: E. coli BL21 (DE3), purified (amylose resin); not shown: MBP, N-terminal, kept
T2 sequence (looked up): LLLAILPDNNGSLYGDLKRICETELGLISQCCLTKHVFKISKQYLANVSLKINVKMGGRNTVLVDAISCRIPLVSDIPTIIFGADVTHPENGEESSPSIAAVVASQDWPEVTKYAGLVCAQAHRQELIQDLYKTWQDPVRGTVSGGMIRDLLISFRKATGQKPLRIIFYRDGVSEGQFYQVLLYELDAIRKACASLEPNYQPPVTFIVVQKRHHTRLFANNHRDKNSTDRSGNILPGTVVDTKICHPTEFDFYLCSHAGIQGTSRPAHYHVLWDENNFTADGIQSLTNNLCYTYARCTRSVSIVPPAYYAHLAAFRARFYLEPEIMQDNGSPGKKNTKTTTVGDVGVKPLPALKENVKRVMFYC

T3: MBP-AGO1 (A. thaliana, UniProt O04379 1-1048)
T3 construct: ARGONAUTE 1 (AGO1), A. thaliana; purified as described in Zhang et al., 2006b; source: E. coli, purified (amylose resin); not shown: MBP, N-terminal, kept
T3 sequence (looked up): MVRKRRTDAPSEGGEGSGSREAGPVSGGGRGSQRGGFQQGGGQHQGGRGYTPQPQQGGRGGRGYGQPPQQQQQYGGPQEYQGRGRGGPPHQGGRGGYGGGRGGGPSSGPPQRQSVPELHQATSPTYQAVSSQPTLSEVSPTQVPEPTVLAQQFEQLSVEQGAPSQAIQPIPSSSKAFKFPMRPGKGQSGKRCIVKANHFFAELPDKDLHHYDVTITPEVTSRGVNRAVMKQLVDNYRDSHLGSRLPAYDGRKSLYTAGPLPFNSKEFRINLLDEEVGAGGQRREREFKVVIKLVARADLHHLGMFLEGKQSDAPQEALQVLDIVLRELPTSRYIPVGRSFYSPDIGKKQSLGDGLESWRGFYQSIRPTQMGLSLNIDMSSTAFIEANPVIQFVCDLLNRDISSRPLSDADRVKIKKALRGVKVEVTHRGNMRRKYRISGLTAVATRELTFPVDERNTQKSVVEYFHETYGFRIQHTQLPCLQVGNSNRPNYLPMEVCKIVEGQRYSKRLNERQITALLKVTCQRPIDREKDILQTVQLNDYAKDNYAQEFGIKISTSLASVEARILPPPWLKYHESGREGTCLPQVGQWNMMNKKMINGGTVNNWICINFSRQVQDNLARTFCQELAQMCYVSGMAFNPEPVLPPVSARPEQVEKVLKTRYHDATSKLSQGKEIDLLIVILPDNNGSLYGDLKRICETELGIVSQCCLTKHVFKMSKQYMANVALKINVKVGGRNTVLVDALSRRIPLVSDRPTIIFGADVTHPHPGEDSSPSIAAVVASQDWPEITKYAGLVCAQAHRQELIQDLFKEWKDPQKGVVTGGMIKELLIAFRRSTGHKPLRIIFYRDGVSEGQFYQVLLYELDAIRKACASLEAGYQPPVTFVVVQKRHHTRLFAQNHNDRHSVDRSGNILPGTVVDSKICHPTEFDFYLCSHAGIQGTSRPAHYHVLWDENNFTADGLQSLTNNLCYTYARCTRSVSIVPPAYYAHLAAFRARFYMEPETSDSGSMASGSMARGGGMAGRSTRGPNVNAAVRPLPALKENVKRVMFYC

T4: MBP-AGO10 (A. thaliana, UniProt Q9XGW1 1-988)
T4 construct: ARGONAUTE 10 (AGO10), A. thaliana; source: E. coli BL21 (DE3), purified (amylose resin); not shown: MBP, N-terminal, kept
T4 sequence (looked up): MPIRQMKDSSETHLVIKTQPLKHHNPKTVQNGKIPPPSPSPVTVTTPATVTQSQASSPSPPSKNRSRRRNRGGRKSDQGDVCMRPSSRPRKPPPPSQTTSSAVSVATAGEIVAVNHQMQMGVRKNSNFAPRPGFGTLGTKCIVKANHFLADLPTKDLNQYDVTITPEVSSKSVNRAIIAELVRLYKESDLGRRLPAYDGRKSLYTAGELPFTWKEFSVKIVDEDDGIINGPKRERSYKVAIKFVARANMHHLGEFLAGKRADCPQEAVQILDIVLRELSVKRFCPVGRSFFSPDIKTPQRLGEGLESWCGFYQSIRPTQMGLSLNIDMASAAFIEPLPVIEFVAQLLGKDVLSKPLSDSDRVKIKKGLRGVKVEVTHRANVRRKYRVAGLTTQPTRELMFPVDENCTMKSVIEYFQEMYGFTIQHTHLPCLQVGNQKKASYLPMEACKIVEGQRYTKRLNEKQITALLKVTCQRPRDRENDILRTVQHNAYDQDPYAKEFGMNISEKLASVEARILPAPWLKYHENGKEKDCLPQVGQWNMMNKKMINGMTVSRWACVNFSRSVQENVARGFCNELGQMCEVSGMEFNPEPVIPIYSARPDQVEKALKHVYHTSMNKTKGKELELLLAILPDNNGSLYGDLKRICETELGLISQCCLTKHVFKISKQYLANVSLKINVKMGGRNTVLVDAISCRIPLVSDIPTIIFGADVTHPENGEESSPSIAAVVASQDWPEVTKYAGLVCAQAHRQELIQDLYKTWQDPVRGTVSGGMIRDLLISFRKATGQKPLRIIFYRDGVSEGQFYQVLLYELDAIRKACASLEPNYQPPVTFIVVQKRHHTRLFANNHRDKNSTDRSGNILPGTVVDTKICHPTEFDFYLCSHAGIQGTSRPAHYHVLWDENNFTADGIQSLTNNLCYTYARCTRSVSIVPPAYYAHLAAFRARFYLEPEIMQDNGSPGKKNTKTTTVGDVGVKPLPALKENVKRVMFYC

B1: 6His-SUMO-RICE2 (natural protein, A. thaliana, UniProt Q9FNG3 1-206, looked up)
chain: MASFDGPKFKMTDGSYVQTKTIDVGSSTDISPYLSLIREDSILNGNRAVIFDVYWDVGFPETETKTKTSGWSLSSVKLSTRNLCLFLRLPKPFHDNLKDLYRFFASKFVTFVGVQIEEDLDLLRENHGLVIRNAINVGKLAAEARGTLVLEFLGTRELAHRVLWSDLGQLDSIEAKWEKAGPEEQLEAAAIEGWLIVNVWDQLSDE
notes: RICE2 (At5g06450; AtDECP), A. thaliana; open reading frame in pET28a-SUMO-DC; also called AtDECP; source: E. coli BL21 (DE3), purified (Ni-NTA); not shown: His6, N-terminal, kept; SUMO, N-terminal, kept
B2: 6His-SUMO-RICE1 (natural protein, A. thaliana, UniProt Q9SF21 1-200, looked up)
chain: MASFDGQGFMMVDNSWVQTKAIDVESTTDISPYLSKILEDSVWNGNRSIVFDVYWDVKSVSTKSEWRLCSVKFSTKNFCLFLRLPNPFCDNLKDLYRFFASKFVTFVGVQIQEDLALLKENHGIVIRSSLEIGKLAAKARGTPIVEFLGTRELAHKILWYDMSRLDSIQSKWDEASSNDRLEAAAIEGWLIFNVYDQLQQ
notes: RICE1 (At3g11770), A. thaliana; open reading frame in pET28a-SUMO-DC; source: E. coli BL21 (DE3), purified (Ni-NTA); not shown: His6, N-terminal, kept; SUMO, N-terminal, kept
B3: RICE1 D114A, purified recombinant (enzyme, A. thaliana, UniProt Q9SF21 1-200, looked up)
chain: B2 chain with D114A
notes: RICE1 (At3g11770), A. thaliana; point mutant made on pET28a-SUMO-RICE1; source: E. coli BL21 (DE3), purified (Ni-NTA, SUMO protease cleavage, SEC); not shown: His6, N-terminal, cleaved; SUMO, N-terminal, cleaved
B4: RICE1, purified recombinant (SUMO tag cleaved) (enzyme, A. thaliana, UniProt Q9SF21 1-200, looked up)
chain: B2 chain
notes: RICE1 (At3g11770), A. thaliana; full-length cDNA in pET28a-SUMO (BamHI/SacI); also called wild type RICE1; source: E. coli BL21 (DE3), purified (Ni-NTA, SUMO protease cleavage, SEC); not shown: His6, N-terminal, cleaved; SUMO, N-terminal, cleaved
B5: MBP-AGO10 PAZ (337-474) (domain or fragment, A. thaliana, UniProt Q9XGW1 337-474, looked up)
chain: LPVIEFVAQLLGKDVLSKPLSDSDRVKIKKGLRGVKVEVTHRANVRRKYRVAGLTTQPTRELMFPVDENCTMKSVIEYFQEMYGFTIQHTHLPCLQVGNQKKASYLPMEACKIVEGQRYTKRLNEKQITALLKVTCQR
notes: AGO10, A. thaliana, residues 337-474 (PAZ); source: E. coli BL21 (DE3), purified (amylose resin); not shown: MBP, N-terminal, kept

The target of data set [1] is T1, MBP-AGO10 NC (127-336). In words: pull-down; His-SUMO baits and MBP-fusion preys purified from E. coli; prey preabsorbed on Ni-NTA resin, then incubated with bait 1 hr at room temperature and captured on Ni-NTA; 50 mM Tris pH 7.5, 150 mM NaCl, 0.2% glycerol, 0.6% Triton X-100, 0.5 mM β-mercaptoethanol; six washes with 300 mM NaCl; blot with anti-MBP. The note with it: both partners purified.

For data set [2], the target named is T2, MBP-AGO10 PIWI (625-988). The description is as above. Conditions: both partners purified.
Data set [3] concerns the target T3, MBP-AGO1. Described as above. Conditions: both partners purified.
The target of data set [4] is T4, MBP-AGO10. Described as above. Conditions: both partners purified.
Data set [5] concerns the molecule itself. In words: SEC; purified RICE1 D114A on Hiload 16/600 Superdex 200 instead of the routinely used Superdex 75.
Data set [6] deals with the molecule itself. Nature of the data set: SEC; purified proteins after SUMO protease cleavage on Superdex75 (1.6 x 60), 20 mM Tris-HCl pH 7.5, 150 mM NaCl. Background: SEC sorts molecules by how far they enter the pores of the column.
Data set [7] deals with the molecule itself. Nature of the data set: crystal structure; RICE1 at 20 mg/ml, hanging drop at 16°C, ~30% pentaerythritol propoxylate (5/4 PO/OH), 0.2 M KCl, 50 mM HEPES pH 7.5; space group I4(1)22, three molecules in the asymmetric unit.
Data set [8] addresses B1. In words: pull-down; His-SUMO baits and MBP-fusion preys purified from E. coli; prey preabsorbed on Ni-NTA resin, then incubated with bait 1 hr at room temperature and captured on Ni-NTA; 50 mM Tris pH 7.5, 150 mM NaCl, 0.2% glycerol, 0.6% Triton X-100, 0.5 mM β-mercaptoethanol; six washes with 300 mM NaCl; blot with anti-MBP. The note with it: both partners purified.
Data set [9] deals with B2. Described as above. Conditions: both partners purified.

Numbering of substitutions follows the chain as printed. In names and notes the source's numbering stands. Several values for one entry are separate records, joined by “and”; a condition that tells them apart may be missing. Equal values may be shown once.

On to B1, for which the binding result in data set [1], in data set [2], in [3] and in [4] was “binds” throughout.
With B2, the binding result in [1], in data set [2], in data set [3] and in data set [4] was “binds” in each case.
For the molecule B3, the “stoichiometry N” value in data set [5] is 2 and 6.
Consider B4, for which the “stoichiometry N” value is around 6 in [6] and 6 in data set [7].
With B5, the binding result in data set [8] and in data set [9] was “binds” throughout.
